B1: TRIM26 (protein, UniProt Q12899 1-539, looked up)
Tripartite motif-containing …: MATSAPLRSLEEEVTCSICLDYLRDPVTIDCGHVFCRSCTTDVRPISGSRPVCPLCKKPFKKENIRPVWQLASLVENIERLKVDKGRQPGEVTREQQDAKLCERHREKLHYYCEDDGKLLCVMCRESREHRPHTAVLMEKAAQPHREKILNHLSTLRRDRDKIQGFQAKGEADILAALKKLQDQRQYIVAEFEQGHQFLREREEHLLEQLAKLEQELTEGREKFKSRGVGELARLALVISELEGKAQQPAAELMQDTRDFLNRYPRKKFWVGKPIARVVKKKTGEFSDKLLSLQRGLREFQGKLLRDLEYKTVSVTLDPQSASGYLQLSEDWKCVTYTSLYKSAYLHPQQFDCEPGVLGSKGFTWGKVYWEVEVEREGWSEDEEEGDEEEEGEEEEEEEEAGYGDGYDDWETDEDEESLGDEEEEEEEEEEEVLESCMVGVARDSVKRKGDLSLRPEDGVWALRLSSSGIWANTSPEAELFPALRPRRVGIALDYEGGTVTFTNAESQELIYTFTATFTRRLVPFLWLKWPGTRLLLRP
B2: PRPF6 (protein, UniProt O94906 1-941, looked up)
Pre-mRNA-processing factor 6: MNKKKKPFLGMPAPLGYVPGLGRGATGFTTRSDIGPARDANDPVDDRHAPPGKRTVGDQMKKNQAADDDDEDLNDTNYDEFNGYAGSLFSSGPYEKDDEEADAIYAALDKRMDERRKERREQREKEEIEKYRMERPKIQQQFSDLKRKLAEVTEEEWLSIPEVGDARNKRQRNPRYEKLTPVPDSFFAKHLQTGENHTSVDPRQTQFGGLNTPYPGGLNTPYPGGMTPGLMTPGTGELDMRKIGQARNTLMDMRLSQVSDSVSGQTVVDPKGYLTDLNSMIPTHGGDINDIKKARLLLKSVRETNPHHPPAWIASARLEEVTGKLQVARNLIMKGTEMCPKSEDVWLEAARLQPGDTAKAVVAQAVRHLPQSVRIYIRAAELETDIRAKKRVLRKALEHVPNSVRLWKAAVELEEPEDARIMLSRAVECCPTSVELWLALARLETYENARKVLNKARENIPTDRHIWITAAKLEEANGNTQMVEKIIDRAITSLRANGVEINREQWIQDAEECDRAGSVATCQAVMRAVIGIGIEEEDRKHTWMEDADSCVAHNALECARAIYAYALQVFPSKKSVWLRAAYFEKNHGTRESLEALLQRAVAHCPKAEVLWLMGAKSKWLAGDVPAARSILALAFQANPNSEEIWLAAVKLESENDEYERARRLLAKARSSAPTARVFMKSVKLEWVQDNIRAAQDLCEEALRHYEDFPKLWMMKGQIEEQKEMMEKAREAYNQGLKKCPHSTPLWLLLSRLEEKIGQLTRARAILEKSRLKNPKNPGLWLESVRLEYRAGLKNIANTLMAKALQECPNSGILWSEAIFLEARPQRRTKSVDALKKCEHDPHVLLAVAKLFWSQRKITKAREWFHRTVKIDSDLGDAWAFFYKFELQHGTEEQQEEVRKRCESAEPRHGELWCAVSKDIANWQKKIGDILRLVAGRIKNTF
B3: MAGED2 (protein, UniProt Q9UNF1 2-606, looked up)
Melanoma-associated antigen D2: SDTSESGAGLTRFQAEASEKDSSSMMQTLLTVTQNVEVPETPKASKALEVSEDVKVSKASGVSKATEVSKTPEAREAPATQASSTTQLTDTQVLAAENKSLAADTKKQNADPQAVTMPATETKKVSHVADTKVNTKAQETEAAPSQAPADEPEPESAAAQSQENQDTRPKVKAKKARKVKHLDGEEDGSSDQSQASGTTGGRRVSKALMASMARRASRGPIAFWARRASRTRLAAWARRALLSLRSPKARRGKARRRAAKLQSSQEPEAPPPRDVALLQGRANDLVKYLLAKDQTKIPIKRSDMLKDIIKEYTDVYPEIIERAGYSLEKVFGIQLKEIDKNDHLYILLSTLEPTDAGILGTTKDSPKLGLLMVLLSIIFMNGNRSSEAVIWEVLRKLGLRPGIHHSLFGDVKKLITDEFVKQKYLDYARVPNSNPPEYEFFWGLRSYYETSKMKVLKFACKVQKKDPKEWAAQYREAMEADLKAAAEAAAEAKARAEIRARMGIGLGSENAAGPCNWDEADIGPWAKARIQAGAEAKAKAQESGSASTGASTSTNNSASASASTSGGFSAGASLTATLTFGLFAGLGGAGASTSGSSGACGFSYK
B4: CLPTM1L (protein, UniProt Q96KA5 1-538, looked up)
Lipid scramblase CLPTM1L: MWSGRSSFTSLVVGVFVVYVVHTCWVMYGIVYTRPCSGDANCIQPYLARRPKLQLSVYTTTRSHLGAENNIDLVLNVEDFDVESKFERTVNVSVPKKTRNNGTLYAYIFLHHAGVLPWHDGKQVHLVSPLTTYMVPKPEEINLLTGESDTQQIEAEKKPTSALDEPVSHWRPRLALNVMADNFVFDGSSLPADVHRYMKMIQLGKTVHYLPILFIDQLSNRVKDLMVINRSTTELPLTVSYDKVSLGRLRFWIHMQDAVYSLQQFGFSEKDADEVKGIFVDTNLYFLALTFFVAAFHLLFDFLAFKNDISFWKKKKSMIGMSTKAVLWRCFSTVVIFLFLLDEQTSLLVLVPAGVGAAIELWKVKKALKMTIFWRGLMPEFQFGTYSESERKTEEYDTQAMKYLSYLLYPLCVGGAVYSLLNIKYKSWYSWLINSFVNGVYAFGFLFMLPQLFVNYKLKSVAHLPWKAFTYKAFNTFIDDVFAFIITMPTSHRLACFRDDVVFLVYLYQRWLYPVDKRRVNEFGESYEEKATRAPHTD
B5: ADAR (protein, UniProt P55265 1-1226, looked up)
Double-stranded RNA-specific …: MNPRQGYSLSGYYTHPFQGYEHRQLRYQQPGPGSSPSSFLLKQIEFLKGQLPEAPVIGKQTPSLPPSLPGLRPRFPVLLASSTRGRQVDIRGVPRGVHLRSQGLQRGFQHPSPRGRSLPQRGVDCLSSHFQELSIYQDQEQRILKFLEELGEGKATTAHDLSGKLGTPKKEINRVLYSLAKKGKLQKEAGTPPLWKIAVSTQAWNQHSGVVRPDGHSQGAPNSDPSLEPEDRNSTSVSEDLLEPFIAVSAQAWNQHSGVVRPDSHSQGSPNSDPGLEPEDSNSTSALEDPLEFLDMAEIKEKICDYLFNVSDSSALNLAKNIGLTKARDINAVLIDMERQGDVYRQGTTPPIWHLTDKKRERMQIKRNTNSVPETAPAAIPETKRNAEFLTCNIPTSNASNNMVTTEKVENGQEPVIKLENRQEARPEPARLKPPVHYNGPSKAGYVDFENGQWATDDIPDDLNSIRAAPGEFRAIMEMPSFYSHGLPRCSPYKKLTECQLKNPISGLLEYAQFASQTCEFNMIEQSGPPHEPRFKFQVVINGREFPPAEAGSKKVAKQDAAMKAMTILLEEAKAKDSGKSEESSHYSTEKESEKTAESQTPTPSATSFFSGKSPVTTLLECMHKLGNSCEFRLLSKEGPAHEPKFQYCVAVGAQTFPSVSAPSKKVAKQMAAEEAMKALHGEATNSMASDNQPEGMISESLDNLESMMPNKVRKIGELVRYLNTNPVGGLLEYARSHGFAAEFKLVDQSGPPHEPKFVYQAKVGGRWFPAVCAHSKKQGKQEAADAALRVLIGENEKAERMGFTEVTPVTGASLRRTMLLLSRSPEAQPKTLPLTGSTFHDQIAMLSHRCFNTLTNSFQPSLLGRKILAAIIMKKDSEDMGVVVSLGTGNRCVKGDSLSLKGETVNDCHAEIISRRGFIRFLYSELMKYNSQTAKDSIFEPAKGGEKLQIKKTVSFHLYISTAPCGDGALFDKSCSDRAMESTESRHYPVFENPKQGKLRTKVENGEGTIPVESSDIVPTWDGIRLGERLRTMSCSDKILRWNVLGLQGALLTHFLQPIYLKSVTLGYLFSQGHLTRAICCRVTRDGSAFEDGLRHPFIVNHPKVGRVSIYDSKRQSGKTKETSVNWCLADGYDLEILDGTRGTVDGPRNELSRVSKKNIFLLFKKLCSFRYRRDLLRLSYGEAKKAARDYETAKNYFKKGLKDMGYGNWISKPQEEKNFYLCPV
B6: LBR (protein, UniProt Q14739 1-615, looked up)
Delta(14)-sterol reductase LBR: MPSRKFADGEVVRGRWPGSSLYYEVEILSHDSTSQLYTVKYKDGTELELKENDIKPLTSFRQRKGGSTSSSPSRRRGSRSRSRSRSPGRPPKSARRSASASHQADIKEARREVEVKLTPLILKPFGNSISRYNGEPEHIERNDAPHKNTQEKFSLSQESSYIATQYSLRPRREEVKLKEIDSKEEKYVAKELAVRTFEVTPIRAKDLEFGGVPGVFLIMFGLPVFLFLLLLMCKQKDPSLLNFPPPLPALYELWETRVFGVYLLWFLIQVLFYLLPIGKVVEGTPLIDGRRLKYRLNGFYAFILTSAVIGTSLFQGVEFHYVYSHFLQFALAATVFCVVLSVYLYMRSLKAPRNDLSPASSGNAVYDFFIGRELNPRIGTFDLKYFCELRPGLIGWVVINLVMLLAEMKIQDRAVPSLAMILVNSFQLLYVVDALWNEEALLTTMDIIHDGFGFMLAFGDLVWVPFIYSFQAFYLVSHPNEVSWPMASLIIVLKLCGYVIFRGANSQKNAFRKNPSDPKLAHLKTIHTSTGKNLLVSGWWGFVRHPNYLGDLIMALAWSLPCGFNHILPYFYIIYFTMLLVHREARDEYHCKKKYGVAWEKYCQRVPYRIFPYIY
B7: DDX28 (protein, UniProt Q9NUL7 1-540, looked up)
Probable ATP-dependent RNA …: MALTRPVRLFSLVTRLLLAPRRGLTVRSPDEPLPVVRIPVALQRQLEQRQSRRRNLPRPVLVRPGPLLVSARRPELNQPARLTLGRWERAPLASQGWKSRRARRDHFSIERAQQEAPAVRKLSSKGSFADLGLEPRVLHALQEAAPEVVQPTTVQSSTIPSLLRGRHVVCAAETGSGKTLSYLLPLLQRLLGQPSLDSLPIPAPRGLVLVPSRELAQQVRAVAQPLGRSLGLLVRDLEGGHGMRRIRLQLSRQPSADVLVATPGALWKALKSRLISLEQLSFLVLDEADTLLDESFLELVDYILEKSHIAEGPADLEDPFNPKAQLVLVGATFPEGVGQLLNKVASPDAVTTITSSKLHCIMPHVKQTFLRLKGADKVAELVHILKHRDRAERTGPSGTVLVFCNSSSTVNWLGYILDDHKIQHLRLQGQMPALMRVGIFQSFQKSSRDILLCTDIASRGLDSTGVELVVNYDFPPTLQDYIHRAGRVGRVGSEVPGTVISFVTHPWDVSLVQKIELAARRRRSLPGLASSVKEPLPQAT

system: GFP-14-3-3β and its binding proteins; assay: GFP-14-3-3β co-IP with LC-MS/MS label-free quantification, untreated versus PP1c-treated; set-up: species or system human; details: log2 difference; pairwise comparison PP1 vs untreated, label-free quantification, 3 replicates each

Molecule | Difference (log2), PP1 vs untreated
B1 | 2.003

same assay, conditions: pairwise comparison PP1 vs untreated

Molecule | Difference (log2), PP1 vs untreated [log2]
B2 | 0.1336
B3 | 0.1347
B4 | 0.154
B5 | 0.1214
B6 | 0.1636
B7 | 0.1504

system: GFP-14-3-3β; assay: GFP-14-3-3β co-IP with LC-MS/MS, untreated GFP-14-3-3β versus GFP control (14-3-3 interactome); type: binding, human; details: log2 difference; pairwise comparison untreated vs GFP, label-free quantification, 3 replicates each

Molecule | Difference (log2), untreated vs GFP
B1 | -0.363

same assay, conditions: pairwise comparison untreated vs GFP

Molecule | Difference (log2), untreated vs GFP [log2]
B2 | 1.324
B3 | 0.4555
B4 | 0.3996
B5 | 1.541
B6 | 2.137
B7 | 0.1408

— PMC7367873, “Dissecting the sequence determinants for dephosphorylation by the catalytic subunits of phosphatases PP1 and PP2A” (Nature Communications, 2020)
